Test results from IntAct's records for PubMed 31260151.

B1: Serine protease HTRA3 (Homo sapiens), P83110-1 (parent)
chain: MQARALLLAALAALALAREPPAAPCPARCDVSRCPSPRCPGGYVPDLCNCCLVCAASEGEPCGGPLDSPCGESLECVRGLCRCRWSHAVCGTDGHTYANVCALQAASRRALQLSGTPVRQLQKGACPLGLHQLSSPRYKFNFIADVVEKIAPAVVHIELFLRHPLFGRNVPLSSGSGFIMSEAGLIITNAHVVSSNSAAPGRQQLKVQLQNGDSYEATIKDIDKKSDIATIKIHPKKKLPVLLLGHSADLRPGEFVVAIGSPFALQNTVTTGIVSTAQREGRELGLRDSDMDYIQTDAIINYGNSGGPLVNLDGEVIGINTLKVTAGISFAIPSDRITRFLTEFQDKQIKDWKKRFIGIRMRTITPSLVDELKASNPDFPEVSSGIYVQEVAPNSPSQRGGIQDGDIIVKVNGRPLVDSSELQEAVLTESPLLLEVRRGNDDLLFSIAPEVVM
B2: Serine protease HTRA3 (Homo sapiens), P83110-2 (parent)
chain: MQARALLLAALAALALAREPPAAPCPARCDVSRCPSPRCPGGYVPDLCNCCLVCAASEGEPCGGPLDSPCGESLECVRGLCRCRWSHAVCGTDGHTYANVCALQAASRRALQLSGTPVRQLQKGACPLGLHQLSSPRYKFNFIADVVEKIAPAVVHIELFLRHPLFGRNVPLSSGSGFIMSEAGLIITNAHVVSSNSAAPGRQQLKVQLQNGDSYEATIKDIDKKSDIATIKIHPKKKLPVLLLGHSADLRPGEFVVAIGSPFALQNTVTTGIVSTAQREGRELGLRDSDMDYIQTDAIINYGNSGGPLVNLDGEVIGINTLKVTAGISFAIPSDRITRFLTEFQDKQIKAPSLAVH

Variants of: B1
Details: with xiap_human XIAP
Target sequence in this assay (P98170 whole entry): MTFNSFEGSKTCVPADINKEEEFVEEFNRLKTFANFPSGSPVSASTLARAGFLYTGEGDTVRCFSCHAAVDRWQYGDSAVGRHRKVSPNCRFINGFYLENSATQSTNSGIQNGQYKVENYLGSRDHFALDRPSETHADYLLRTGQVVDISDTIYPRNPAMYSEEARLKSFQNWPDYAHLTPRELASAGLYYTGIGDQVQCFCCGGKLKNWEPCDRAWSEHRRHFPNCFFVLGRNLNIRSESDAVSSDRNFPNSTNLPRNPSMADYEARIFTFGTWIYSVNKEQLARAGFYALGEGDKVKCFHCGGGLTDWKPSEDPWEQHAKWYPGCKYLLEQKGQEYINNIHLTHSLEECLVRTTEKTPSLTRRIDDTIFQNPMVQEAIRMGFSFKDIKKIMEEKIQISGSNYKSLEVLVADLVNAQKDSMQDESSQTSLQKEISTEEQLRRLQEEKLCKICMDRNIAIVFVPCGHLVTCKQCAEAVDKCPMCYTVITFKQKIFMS

| Variant | effect of a mutation on the interaction |
| --- | --- |
| MQARALLLAALAALALAREPPAAPCPARCDVSRCPSPRCPGGYVPDLCNCCLVCAASEGEPCGGPLDSPCGESLECVRGLCRCRWSHAVCGTDGHTYANVCALQAASRRALQLSGTPVRQLQKGACPLGLHQLSSPRYKFNFIADVVEKIAPAVVHIELFLRHPLFGRNVPLSSGSGFIMSEAGLIITNAHVVSSNSAAPGRQQLKVQLQNGDSYEATIKDIDKKSDIATIKIHPKKKLPVLLLGHSADLRPGEFVVAIGSPFALQNTVTTGIVSTAQREGRELGLRDSDMDYIQTDAIINYGNAGGPLVNLDGEVIGINTLKVTAGISFAIPSDRITRFLTEFQDKQIKDWKKRFIGIRMRTITPSLVDELKASNPDFPEVSSGIYVQEVAPNSPSQRGGIQDGDIIVKVNGRPLVDSSELQEAVLTESPLLLEVRRGNDDLLFSIAPEVVM [S305A] | decreasing interaction strength |

Variants of: B2
Details: with xiap_human XIAP
Target sequence in this assay (P98170 whole entry): as the sequence (P98170 whole entry) above

| Variant | effect of a mutation on the interaction |
| --- | --- |
| MQARALLLAALAALALAREPPAAPCPARCDVSRCPSPRCPGGYVPDLCNCCLVCAASEGEPCGGPLDSPCGESLECVRGLCRCRWSHAVCGTDGHTYANVCALQAASRRALQLSGTPVRQLQKGACPLGLHQLSSPRYKFNFIADVVEKIAPAVVHIELFLRHPLFGRNVPLSSGSGFIMSEAGLIITNAHVVSSNSAAPGRQQLKVQLQNGDSYEATIKDIDKKSDIATIKIHPKKKLPVLLLGHSADLRPGEFVVAIGSPFALQNTVTTGIVSTAQREGRELGLRDSDMDYIQTDAIINYGNAGGPLVNLDGEVIGINTLKVTAGISFAIPSDRITRFLTEFQDKQIKAPSLAVH [S305A] | decreasing interaction strength |
